The numbers were not newly measured in publication PMC11076006, which cites them from elsewhere.

The target in the data set is TLR4 (Homo sapiens) (UniProt O00206).
UniProt O00206, sequence (O00206 24-839): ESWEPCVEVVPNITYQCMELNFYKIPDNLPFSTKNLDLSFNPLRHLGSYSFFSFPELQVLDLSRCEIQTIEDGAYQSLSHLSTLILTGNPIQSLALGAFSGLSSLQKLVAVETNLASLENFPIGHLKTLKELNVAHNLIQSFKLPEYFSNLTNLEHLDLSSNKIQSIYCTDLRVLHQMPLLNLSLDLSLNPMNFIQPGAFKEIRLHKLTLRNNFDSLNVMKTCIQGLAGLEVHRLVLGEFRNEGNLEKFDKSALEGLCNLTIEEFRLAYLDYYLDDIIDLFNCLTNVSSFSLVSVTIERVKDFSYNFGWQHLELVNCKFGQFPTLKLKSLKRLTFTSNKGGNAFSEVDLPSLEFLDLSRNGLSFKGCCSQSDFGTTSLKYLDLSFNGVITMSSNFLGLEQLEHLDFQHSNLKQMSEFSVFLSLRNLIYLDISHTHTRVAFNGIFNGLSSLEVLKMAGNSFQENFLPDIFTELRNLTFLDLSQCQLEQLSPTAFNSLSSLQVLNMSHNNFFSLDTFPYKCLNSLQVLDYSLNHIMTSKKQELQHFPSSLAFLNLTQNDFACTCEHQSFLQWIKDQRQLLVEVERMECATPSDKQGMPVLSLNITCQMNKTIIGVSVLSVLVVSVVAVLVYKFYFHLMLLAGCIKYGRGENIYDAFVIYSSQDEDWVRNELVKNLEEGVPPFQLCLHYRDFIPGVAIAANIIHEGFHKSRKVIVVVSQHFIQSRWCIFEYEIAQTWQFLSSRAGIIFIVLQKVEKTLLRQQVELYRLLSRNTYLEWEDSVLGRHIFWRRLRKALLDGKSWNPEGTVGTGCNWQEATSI

What is called Kd is the equilibrium constant for the complex coming apart. On to S100A9 (from UniProt P06702), for which the Kd is 3.2 nM.
